Experimental data from US20240425569A1 (VISTERRA, published 2024).

Experiments:
[1] = biological target: T1, Singapore/2008 (serotype II EDIII); experiment: SPR; row Singapore/2008, serotype II, genotype Cosmopolitan
T1 construct: also called ED3-DV2/Sing08; DENV-2 Sing

[2] = biological target: T2, Hawaii/1944* (serotype I EDIII) (Dengue virus 1); experiment: SPR; row Hawaii/1944*, serotype I, genotype I
T2 construct: isolated EDIII protein; also called EDIII of DENV-1 Hawaii/1944

[3] = biological target: T3, EDIII-DV1 (E protein domain III of dengue virus serotype DV-1) (dengue virus serotype DV-1, UniProt P17763 573-680)
T3 construct: also called DENV-1; EDIII of DV-1
T3 chain: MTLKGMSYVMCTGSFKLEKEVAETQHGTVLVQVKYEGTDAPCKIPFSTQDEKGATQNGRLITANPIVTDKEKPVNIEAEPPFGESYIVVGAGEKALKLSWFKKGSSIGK

[4] = biological target: ED3-DV4/H241/Phil56 (EDIII of DENV-4 strain H241) (dengue virus serotype DENV-4, strain …, UniProt Q58HT7 572-679)
[5] = biological target: T4, Mexico/2007 (serotype I EDIII)
T4 construct: also called ED3-DV1/Mexico07
T4 E protein domain III (EDIII): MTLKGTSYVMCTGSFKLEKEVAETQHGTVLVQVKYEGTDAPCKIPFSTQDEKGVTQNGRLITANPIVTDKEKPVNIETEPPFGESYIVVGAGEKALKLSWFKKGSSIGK

[6] = biological target: T5, EDIII-DV4 (E protein domain III of dengue virus serotype DV-4) (dengue virus serotype DV-4, UniProt P09866 572-679)
T5 construct: also called DENV-4
T5 sequence (P09866 572-679, tags left off): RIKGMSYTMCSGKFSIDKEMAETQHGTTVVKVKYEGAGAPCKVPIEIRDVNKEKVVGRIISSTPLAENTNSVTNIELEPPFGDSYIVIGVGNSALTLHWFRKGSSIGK

[7] = biological target: T6, EDIII-DV3 (E protein domain III of dengue virus serotype DV-3) (dengue virus serotype DV-3, UniProt P27915 571-678)
T6 construct: also called DENV-3; EDIII of DV-3
T6 sequence (P27915 571-678, tags left off): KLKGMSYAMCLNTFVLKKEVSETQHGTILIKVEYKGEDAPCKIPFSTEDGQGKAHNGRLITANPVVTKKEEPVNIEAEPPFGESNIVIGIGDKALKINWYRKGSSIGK

[8] = biological target: T7, Peru/1995 (serotype II EDIII); experiment: Kd table, method not stated; Ag DENV-2 Peru
T7 construct: also called ED3-DV2/Peru95; DENV-2 Peru

B1: antibody D88 (antibody, V domains shown)
VH: QVQLVQSGAEVKKPGASVKVSCKAGFNIKDVYMSWVRQAPEQGLEWMGRIDPENGDTKYDPKLQGRVTMTADTSTNTAYMELRSLRSDDTAVYYCARGWEGFAYWGQGTLVTVSS
VL: DIVMTQSPASLAVSLGERATISCRASENVDKYGNSFMHWYQQKPGQPPKLLIYRASELQWGVPDRFSGSGSGTDFTLTISSLQAEDVAVYYCQRSNEVPWTFGQGTKLEIK
notes: also called mAb D88
Question: Which results are given for B1?
Answer: Kd [1]: 0.024 nM; Kd [2]: 0.041 nM; Kd [3]: 0.041 nM; Kd [4]: 100 nM; Kd [5]: 0.071 nM; Kd [6]: 5.01 nM; Kd [7]: 1.05 nM; Kd [8]: < 0.1 nM
